The source of these data is paper PMC4842275.

The target of the experiment is HIV-1 capsid of the wild type HIV-1GFP vector (HIV-1).

In turn, “engineered human TRIM5alpha fused with CypA at position S322 (T5Cyp) (from UniProt Q9C035 1-322)” gave a restriction of HIV-1GFP infection (GFP+ cells by FACS 48 h after infection) in Jurkat T5Cyp cells compared to H126Q cells of 10 fold.
